Data from US20240270857A1 (CHIA TAI TIANQING PHARMACEUTICAL GROUP, published 2024).
Read-outs that look alike come from different tables or passages of the source. One block for each binder: values may come before it.

What was measured:
[1] = target: T1, human IL-36R overexpressed on 293T-hIL36R-NFκB cells (human, UniProt Q9HB29 20-575); assay: cell-based or functional assay
T1 sequence: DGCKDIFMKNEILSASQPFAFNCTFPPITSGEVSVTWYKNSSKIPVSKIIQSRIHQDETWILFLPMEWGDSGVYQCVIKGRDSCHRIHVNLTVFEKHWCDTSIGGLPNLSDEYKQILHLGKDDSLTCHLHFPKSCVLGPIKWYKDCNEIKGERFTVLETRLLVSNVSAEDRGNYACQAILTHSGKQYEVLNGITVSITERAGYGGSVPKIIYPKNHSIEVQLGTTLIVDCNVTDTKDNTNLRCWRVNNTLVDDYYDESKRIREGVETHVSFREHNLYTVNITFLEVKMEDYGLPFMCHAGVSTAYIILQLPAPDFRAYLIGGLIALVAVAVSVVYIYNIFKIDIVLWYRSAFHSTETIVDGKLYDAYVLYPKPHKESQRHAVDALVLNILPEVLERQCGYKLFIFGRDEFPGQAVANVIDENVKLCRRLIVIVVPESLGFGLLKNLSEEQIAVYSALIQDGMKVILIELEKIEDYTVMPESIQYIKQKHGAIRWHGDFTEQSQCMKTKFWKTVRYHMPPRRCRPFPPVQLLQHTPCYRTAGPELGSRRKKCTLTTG

[2] = target: T1, human IL-36R overexpressed on …; assay: cell-based or functional assay; remark: listed apart in the source
[3] = target: T2, IL-36R naturally expressed on OVCAR8 cells and on normal human epidermal keratinocytes (NHK cells) (human, UniProt Q9HB29 20-575); assay: cell-based or functional assay
T2 sequence (looked up): T1 sequence

[4] = target: T1, human IL-36R overexpressed on …; assay: cell-based or functional assay; remark: listed apart in the source
[5] = target: T2, IL-36R naturally expressed on OVCAR8 …; assay: cell-based or functional assay; remark: listed apart in the source
[6] = target: T1, human IL-36R overexpressed on …; assay: FACS on 293T-hIL36R-NFκB cells, ratio of MFI to background MFI
Experimental: After the cells was washed with PBS, the cells were resuspended with 100 μL of PBS and then the fluorescence signal was detected using a flow cytometer (BD, Accuri C6). […] The ratio was the ratio of mean fluorescence intensity (MFI) of the experimental group/the background MFI, and the resulting data were analyzed using GraphPad Prism.

[7] = target: T2, IL-36R naturally expressed on OVCAR8 …; assay: cell-based or functional assay; remark: listed apart in the source
[8] = target: T1, human IL-36R overexpressed on …; assay: cell-based or functional assay; remark: listed apart in the source
[9] = target: T1, human IL-36R overexpressed on …; assay: cell-based or functional assay; remark: listed apart in the source

IC50; NFκB-luciferase reporter in 293T-hIL36R-NFκB cells stimulated with hIL36β, inhibition rate % [1]: 2.79 nM
IC50; NFκB-luciferase reporter in 293T-hIL36R-NFκB cells stimulated with hIL36α, inhibition rate % [2]: 3.25 nM
IC50; IL-8 production of NHK cells stimulated with hIL36α, inhibition rate % [3]: 1.02 nM
B1: chimeric 84C4 antibody (antibody, human IgG4 S228P, kappa)
heavy: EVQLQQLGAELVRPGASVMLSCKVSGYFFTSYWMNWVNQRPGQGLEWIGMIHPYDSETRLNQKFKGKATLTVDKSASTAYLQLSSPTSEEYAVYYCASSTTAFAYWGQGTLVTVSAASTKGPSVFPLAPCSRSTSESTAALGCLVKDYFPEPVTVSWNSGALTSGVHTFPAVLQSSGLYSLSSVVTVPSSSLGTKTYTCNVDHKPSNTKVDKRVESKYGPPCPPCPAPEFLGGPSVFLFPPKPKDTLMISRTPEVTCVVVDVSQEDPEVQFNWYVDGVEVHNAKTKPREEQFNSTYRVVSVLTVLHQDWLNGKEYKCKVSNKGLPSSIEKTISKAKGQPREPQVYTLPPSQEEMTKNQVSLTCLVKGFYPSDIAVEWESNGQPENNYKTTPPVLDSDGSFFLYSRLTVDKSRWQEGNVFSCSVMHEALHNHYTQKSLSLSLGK
light: DILMTQSPSSLSASLGERVSLTCRASQDIGNALNWLQQAPDGTIKRLIYATSSLDPGVPKRFSGSRSGSDYSLTISSLASEDFVYYYCLQYASSPYTFGGGTKLEIKRTVAAPSVFIFPPSDEQLKSGTASVVCLLNNFYPREAKVQWKVDNALQSGNSQESVTEQDSKDSTYSLSSTLTLSKADYEKHKVYACEVTHQGLSSPVTKSFNRGEC
notes: Mouse variable regions on human IgG4 / kappa; also called xi84C4

IC50; NFκB-luciferase reporter in 293T-hIL36R-NFκB cells stimulated with hIL36β, inhibition rate % [1]: 2.45 nM
IC50; NFκB-luciferase reporter in 293T-hIL36R-NFκB cells stimulated with hIL36β, inhibition rate % [4]: 5.02 nM
IC50; IL-8 production of OVCAR8 cells stimulated with hIL36α, inhibition rate % [5]: 0.0799 nM
EC50 [6]: 7.02 nM
IC50; NFκB-luciferase reporter in 293T-hIL36R-NFκB cells stimulated with hIL36α, inhibition rate % [2]: 6.09 nM
IC50; IL-8 production of NHK cells stimulated with hIL36α, inhibition rate % [3]: 0.214 nM
IC50; IL-8 production of OVCAR8 cells stimulated with hIL36γ, inhibition rate % [7]: 0.0405 nM
IC50; NFκB-luciferase reporter in 293T-hIL36R-NFκB cells stimulated with hIL36α, inhibition rate % [8]: 3.62 nM
IC50; NFκB-luciferase reporter in 293T-hIL36R-NFκB cells stimulated with hIL36γ, inhibition rate % [9]: 4.74 nM
B2: BI655130 (antibody, human IgG1, kappa, L234A L235A)
heavy: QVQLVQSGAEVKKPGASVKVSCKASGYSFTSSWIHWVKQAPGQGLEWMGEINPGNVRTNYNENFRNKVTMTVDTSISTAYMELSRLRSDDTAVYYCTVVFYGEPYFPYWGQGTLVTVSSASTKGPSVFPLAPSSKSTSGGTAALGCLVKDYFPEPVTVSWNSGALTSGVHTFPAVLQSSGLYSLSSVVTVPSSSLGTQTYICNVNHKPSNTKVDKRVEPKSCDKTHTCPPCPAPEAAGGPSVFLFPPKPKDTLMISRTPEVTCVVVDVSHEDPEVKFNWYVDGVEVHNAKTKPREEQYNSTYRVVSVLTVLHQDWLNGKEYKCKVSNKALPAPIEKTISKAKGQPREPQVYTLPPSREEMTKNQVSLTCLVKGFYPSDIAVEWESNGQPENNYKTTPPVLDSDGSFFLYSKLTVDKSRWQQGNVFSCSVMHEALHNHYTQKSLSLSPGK
light: QIVLTQSPGTLSLSPGERATMTCTASSSVSSSYFHWYQQKPGQAPRLWIYRTSRLASGVPDRFSGSGSGTDFTLTISRLEPEDAATYYCHQFHRSPLTFGAGTKLEIKRTVAAPSVFIFPPSDEQLKSGTASVVCLLNNFYPREAKVQWKVDNALQSGNSQESVTEQDSKDSTYSLSSTLTLSKADYEKHKVYACEVTHQGLSSPVTKSFNRGEC
notes: also called Spesolimab

IC50; NFκB-luciferase reporter in 293T-hIL36R-NFκB cells stimulated with hIL36β, inhibition rate % [4]: 7.51 nM
IC50; IL-8 production of OVCAR8 cells stimulated with hIL36α, inhibition rate % [5]: 0.113 nM
EC50 [6]: 6.47 nM
IC50; IL-8 production of OVCAR8 cells stimulated with hIL36γ, inhibition rate % [7]: 0.0555 nM
IC50; NFκB-luciferase reporter in 293T-hIL36R-NFκB cells stimulated with hIL36α, inhibition rate % [8]: 8 nM
IC50; NFκB-luciferase reporter in 293T-hIL36R-NFκB cells stimulated with hIL36γ, inhibition rate % [9]: 10.5 nM
B3: chimeric 72C1 antibody (antibody, human IgG4 S228P, kappa)
heavy: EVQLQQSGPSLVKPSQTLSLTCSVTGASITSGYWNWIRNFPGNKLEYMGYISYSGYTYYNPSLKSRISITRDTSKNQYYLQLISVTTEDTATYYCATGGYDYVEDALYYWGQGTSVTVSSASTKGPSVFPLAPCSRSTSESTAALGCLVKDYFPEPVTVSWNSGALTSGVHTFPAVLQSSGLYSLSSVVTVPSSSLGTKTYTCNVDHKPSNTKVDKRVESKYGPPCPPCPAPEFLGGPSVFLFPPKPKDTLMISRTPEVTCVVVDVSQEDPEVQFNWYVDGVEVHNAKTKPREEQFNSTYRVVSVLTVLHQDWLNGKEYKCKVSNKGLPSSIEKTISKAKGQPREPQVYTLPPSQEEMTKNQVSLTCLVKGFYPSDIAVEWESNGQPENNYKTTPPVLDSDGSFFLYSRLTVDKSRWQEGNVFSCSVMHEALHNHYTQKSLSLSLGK
light: EILLTQSPAIMSATLGEKVTMSCRASSNVRYMYWYQLKSGASPKLWIYLTSNLASGVPARFSGSGSGTSYSLTISSVEAEDAATYFCQQFTTSPYTFGGGTKLEIKRTVAAPSVFIFPPSDEQLKSGTASVVCLLNNFYPREAKVQWKVDNALQSGNSQESVTEQDSKDSTYSLSSTLTLSKADYEKHKVYACEVTHQGLSSPVTKSFNRGEC
notes: Mouse variable regions on human IgG4 / kappa; also called xi72C1
